Where no end group is shown, it is not given here. The star is where a group is joined. NH(CH2)5NH2 = NCCCCCN*

Here are results for ten molecules from patent US20210147486A1 (VIB VZW, published 2021).

For assay [1], the target named is T1, E. coli CsgG (wild type) fused C-terminally to a Strep-II tag (Escherichia coli, UniProt P0AEA2 16-277, N-terminal Cys of mature CsgG lipidated (N-terminal lipidation of CsgG)).
T1 construct: Nonameric pore; dimers of nonamers (18-mer) also seen; also called CsgG-Strep; CsgG pore; not shown: C-terminal Strep-II tag
T1 sequence: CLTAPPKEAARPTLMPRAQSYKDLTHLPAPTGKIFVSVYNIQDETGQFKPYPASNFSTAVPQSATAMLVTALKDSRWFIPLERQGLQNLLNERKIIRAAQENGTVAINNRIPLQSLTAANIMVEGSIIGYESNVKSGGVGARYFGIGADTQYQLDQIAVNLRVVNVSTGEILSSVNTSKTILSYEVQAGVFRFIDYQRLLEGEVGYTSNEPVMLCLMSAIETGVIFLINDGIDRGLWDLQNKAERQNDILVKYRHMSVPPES
Nature of the assay: co-expression, Strep affinity purification, anti-His dot blot.

In assay [2] the target is T1, E. coli CsgG (wild type) fused …. The assay is described as follows: in vitro reconstitution 2:1 peptide:CsgG, StrepTactin pull down, native PAGE fluorescence.
For assay [3], the target named is T2, CsgG Y51A/F56Q/K94Q/R97W/R192D-del(V105-I107), Strep-tagged (Escherichia coli, UniProt P0AEA2 16-277).
T2 construct: also called CsgG mutant with altered constriction; not shown: C-terminal Strep tag
T2 chain: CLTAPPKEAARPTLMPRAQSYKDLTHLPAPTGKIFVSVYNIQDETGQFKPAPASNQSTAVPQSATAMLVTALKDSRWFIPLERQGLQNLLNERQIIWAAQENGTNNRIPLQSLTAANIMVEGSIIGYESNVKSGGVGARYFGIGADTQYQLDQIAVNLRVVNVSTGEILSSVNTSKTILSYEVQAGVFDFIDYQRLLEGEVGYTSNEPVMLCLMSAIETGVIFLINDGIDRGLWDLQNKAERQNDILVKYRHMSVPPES
Described as above.

The target of assay [4] is T3, CsgG Y51A/N55V/F56Q/N91R/K94Q/R97W-del(V105-I107) pore containing the C terminal strep tag (Escherichia coli, UniProt P0AEA2 16-277).
T3 construct: also called Y51A/F56Q/N55V/N91R/K94Q/R97W-del(V105-I107); not shown: C-terminal Strep tag
T3 chain: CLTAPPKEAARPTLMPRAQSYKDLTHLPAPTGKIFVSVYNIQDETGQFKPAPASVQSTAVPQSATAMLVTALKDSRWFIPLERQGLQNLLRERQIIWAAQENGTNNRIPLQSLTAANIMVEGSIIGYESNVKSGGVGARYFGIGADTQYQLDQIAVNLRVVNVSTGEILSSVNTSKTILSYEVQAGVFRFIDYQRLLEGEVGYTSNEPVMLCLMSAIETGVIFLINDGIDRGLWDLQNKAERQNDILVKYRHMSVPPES
The assay is described as follows: reconstitution of purified pore with synthetic peptide; electrophysiology.

Assay [5] deals with T4, CsgG Y51A/F56Q/N91R/K94Q/R97W-del(V105-I107) pore containing the C terminal strep tag (Escherichia coli, UniProt P0AEA2 16-277).
T4 construct: not shown: C-terminal Strep tag
T4 chain: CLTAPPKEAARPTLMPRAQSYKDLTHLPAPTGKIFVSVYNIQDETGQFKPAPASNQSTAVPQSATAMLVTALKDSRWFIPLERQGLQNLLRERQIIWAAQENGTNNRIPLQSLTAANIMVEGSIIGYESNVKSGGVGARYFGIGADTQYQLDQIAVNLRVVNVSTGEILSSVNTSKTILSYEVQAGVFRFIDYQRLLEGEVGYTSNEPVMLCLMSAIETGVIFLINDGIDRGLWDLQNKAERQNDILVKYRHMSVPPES
The assay is described as follows: co-expression, purification, TEV cleavage; DNA translocation current recording.

Assay [6] concerns the target T1, E. coli CsgG (wild type) fused …. The assay is described as follows: co-expression in E. coli; His then Strep tandem affinity purification; SDS-PAGE.
The target of assay [7] is T3, CsgG …. Nature of the assay: reconstitution of purified pore with synthetic peptide; SDS-PAGE after heating.
The target in assay [8] is T3, CsgG …. Nature of the assay: complex made by incubating pore and peptide; DNA translocation current recording.
The target in assay [9] is T5, CsgG Y51T/N55V/F56Q/N91R/K94Q/R97W-del(V105-I107) pore containing the C terminal strep tag (Escherichia coli, UniProt P0AEA2 16-277).
T5 construct: not shown: C-terminal Strep tag
T5 chain: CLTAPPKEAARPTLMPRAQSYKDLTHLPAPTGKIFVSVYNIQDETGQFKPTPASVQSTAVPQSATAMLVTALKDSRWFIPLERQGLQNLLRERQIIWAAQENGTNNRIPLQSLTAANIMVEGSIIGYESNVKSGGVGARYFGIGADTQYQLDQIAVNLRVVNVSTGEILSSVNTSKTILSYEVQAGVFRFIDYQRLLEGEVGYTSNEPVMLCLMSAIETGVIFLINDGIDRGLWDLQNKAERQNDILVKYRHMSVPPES
The assay is described as follows: panel B; complex made by incubating pore and peptide; DNA translocation current recording.

The target of assay [10] is T6, CsgG Y51A/F56I/N91R/K94Q/R97W-del(V105-I107) pore containing the C terminal strep tag (Escherichia coli, UniProt P0AEA2 16-277).
T6 construct: F561 read as F56I; also called Y51A/F561/N91R/K94Q/R97W-del(V105-I107) (so in the source); not shown: C-terminal Strep tag
T6 chain: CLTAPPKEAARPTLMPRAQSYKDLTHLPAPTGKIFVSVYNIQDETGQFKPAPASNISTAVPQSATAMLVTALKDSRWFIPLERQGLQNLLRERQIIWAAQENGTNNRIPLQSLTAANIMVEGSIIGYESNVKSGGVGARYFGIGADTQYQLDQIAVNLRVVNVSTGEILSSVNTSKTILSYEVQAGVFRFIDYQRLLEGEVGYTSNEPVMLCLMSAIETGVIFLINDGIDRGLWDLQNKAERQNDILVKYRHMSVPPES
The assay is described as follows: panel E; complex made by incubating pore and peptide; DNA translocation current recording.

Assay [11] deals with T7, CsgG Y51A/F56A/N91R/K94Q/R97W-del(V105-I107) pore containing the C terminal strep tag (Escherichia coli, UniProt P0AEA2 16-277).
T7 construct: not shown: C-terminal Strep tag
T7 chain: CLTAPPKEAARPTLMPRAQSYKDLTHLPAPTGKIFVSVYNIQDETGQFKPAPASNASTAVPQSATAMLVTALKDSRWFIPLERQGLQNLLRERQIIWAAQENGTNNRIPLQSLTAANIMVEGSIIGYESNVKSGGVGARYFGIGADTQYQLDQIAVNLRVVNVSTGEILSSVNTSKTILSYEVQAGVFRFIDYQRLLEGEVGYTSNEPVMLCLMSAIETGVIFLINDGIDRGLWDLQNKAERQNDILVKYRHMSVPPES
Nature of the assay: panel D; complex made by incubating pore and peptide; DNA translocation current recording.

The target in assay [12] is T8, CsgG Y51A/N55I/F56Q/N91R/K94Q/R97W-del(V105-I107) pore containing the C terminal strep tag (Escherichia coli, UniProt P0AEA2 16-277).
T8 construct: N551 read as N55I; also called Y51A/N551/F56Q/N91R/K94Q/R97W-del(V105-I107) (so in the source); not shown: C-terminal Strep tag
T8 chain: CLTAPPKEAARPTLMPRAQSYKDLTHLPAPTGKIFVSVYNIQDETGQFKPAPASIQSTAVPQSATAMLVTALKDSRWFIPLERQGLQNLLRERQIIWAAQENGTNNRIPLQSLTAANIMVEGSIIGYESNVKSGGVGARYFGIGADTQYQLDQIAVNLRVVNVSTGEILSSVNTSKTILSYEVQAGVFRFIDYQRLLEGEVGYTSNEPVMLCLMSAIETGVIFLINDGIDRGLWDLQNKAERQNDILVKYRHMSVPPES
Nature of the assay: panel C; complex made by incubating pore and peptide; DNA translocation current recording.

Assay [13] addresses T9, CsgG Y51S/N55V/F56Q/N91R/K94Q/R97W-del(V105-I107) pore containing the C terminal strep tag (Escherichia coli, UniProt P0AEA2 16-277).
T9 construct: not shown: C-terminal Strep tag
T9 chain: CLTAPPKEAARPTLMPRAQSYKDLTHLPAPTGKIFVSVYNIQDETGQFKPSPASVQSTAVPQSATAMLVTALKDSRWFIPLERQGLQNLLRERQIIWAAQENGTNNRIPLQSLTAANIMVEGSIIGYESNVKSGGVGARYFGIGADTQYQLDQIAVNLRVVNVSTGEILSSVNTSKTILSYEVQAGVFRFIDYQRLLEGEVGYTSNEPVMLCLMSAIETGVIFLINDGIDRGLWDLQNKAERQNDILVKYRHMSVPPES
The assay is described as follows: panel F; complex made by incubating pore and peptide; DNA translocation current recording.

B1: CsgF 20:64 fragment with C-terminal 6xHis (from pNA100) (peptide)
peptide: GTMTFQFRNPNFGGNPNNGAFLLNSAQAQNSYKDPSYNDDFGIETHHHHHH
notes: also called CsgF 1-64; CsgF fragment 1-64
Turning to B1, the binding result in [1] is recorded as “binds”.

B2: Alexa 594-labelled CsgF peptide corresponding to the first 34 residues of mature CsgF (peptide)
peptide: GTMTFQFRNPNFGGNPNNGAFLLNSAQAQNSYKD-{NH(CH2)5NH2-Alexa594}
notes: Synthetic peptide; also called CsgF N-terminal peptide; FCP
For the molecule B2, the binding result in [2] and in assay [3] was “binds” throughout.

GTMTFQFRNPNFGGNPNNGAFLLNSAQAQ [CsgF-(1-29) synthetic peptide]: in assay [4], the binding result is listed as “binds”.

B3: CsgF truncated at position 35 by TEV cleavage, with ENLYFQ left at the C-terminus (peptide)
peptide: GTMTFQFRNPNFGGNPNNGAFLLNSAQAQNSYKDPENLYFQ
notes: The text calls it 42 amino acids long; 35 + 6 gives 41; also called CsgF truncated protein
For the molecule B3, the binding result in [5] is recorded as “binds”.

Regarding GTMTFQFRNPNFGGNPSNGAFLLNSAQAQNSYKDPENLYFQ [CsgF N17S truncated at position 35 by TEV cleavage, with ENLYFQ left at the C-terminus], the binding result in [5] is recorded as “binds”.

B4: E. coli CsgF (mature) with a C-terminal 6x histidine tag (other)
chain: GTMTFQFRNPNFGGNPNNGAFLLNSAQAQNSYKDPSYNDDFGIETPSALDNFTQAIQSQILGGLLSNINTGKPGRMVTNDYIVDIANRDGQLQLNVTDRKTGQTSTIQVSGLQNNSTDFHHHHHH
notes: a start Met is not mentioned; 9:9 stoichiometry with CsgG in the cryoEM structure; also called CsgF-His
On to B4, for which, in assay [6], the binding result is reported as “binds”.

As to GTMTFQFRNPNFGGNPNNGAFLLNSAQAQN [CsgF-(1-30) synthetic peptide], the binding result in assay [4] was “binds”.

Turning to GTMTFQFRNPNFGGNPNNGAFLLNSAQAQNSYKDPSYNDDFGIET [CsgF-(1-45) synthetic peptide], the binding result in assay [7] is “binds”.

With GTMTFQFRNPNFGGNPSNGAFLLNSAQAQNSYKDP (also called CsgF-N175-(1-35)) [CsgF-N17S-(1-35) peptide], the binding result in assay [8], in assay [9], in assay [10], in assay [11], in [12] and in [13] was “binds” in each case.

GTMTFQFRNPNFGGNPVNGAFLLNSAQAQNSYKDP [CsgF-N17V-(1-35) peptide]: in assay [8], the binding result is on record as “binds”.
